Patent US20070004634A1 (published 2007)

Tests used:
[1] = target: T1, human insulin receptor (HIR) (human, UniProt P06213-2 28-1370, limits assumed); assay: 125I-insulin competition, solubilized HIR
T1 construct: detergent-solubilized receptor

[2] = target: soluble human insulin mini-receptor (mIR) (human, UniProt P06213-2 28-746, limits assumed); assay: FP vs FITC-RP9 on mIR

T1 sequence (P06213 other isoform, or with tags, fused parts or gaps limits assumed): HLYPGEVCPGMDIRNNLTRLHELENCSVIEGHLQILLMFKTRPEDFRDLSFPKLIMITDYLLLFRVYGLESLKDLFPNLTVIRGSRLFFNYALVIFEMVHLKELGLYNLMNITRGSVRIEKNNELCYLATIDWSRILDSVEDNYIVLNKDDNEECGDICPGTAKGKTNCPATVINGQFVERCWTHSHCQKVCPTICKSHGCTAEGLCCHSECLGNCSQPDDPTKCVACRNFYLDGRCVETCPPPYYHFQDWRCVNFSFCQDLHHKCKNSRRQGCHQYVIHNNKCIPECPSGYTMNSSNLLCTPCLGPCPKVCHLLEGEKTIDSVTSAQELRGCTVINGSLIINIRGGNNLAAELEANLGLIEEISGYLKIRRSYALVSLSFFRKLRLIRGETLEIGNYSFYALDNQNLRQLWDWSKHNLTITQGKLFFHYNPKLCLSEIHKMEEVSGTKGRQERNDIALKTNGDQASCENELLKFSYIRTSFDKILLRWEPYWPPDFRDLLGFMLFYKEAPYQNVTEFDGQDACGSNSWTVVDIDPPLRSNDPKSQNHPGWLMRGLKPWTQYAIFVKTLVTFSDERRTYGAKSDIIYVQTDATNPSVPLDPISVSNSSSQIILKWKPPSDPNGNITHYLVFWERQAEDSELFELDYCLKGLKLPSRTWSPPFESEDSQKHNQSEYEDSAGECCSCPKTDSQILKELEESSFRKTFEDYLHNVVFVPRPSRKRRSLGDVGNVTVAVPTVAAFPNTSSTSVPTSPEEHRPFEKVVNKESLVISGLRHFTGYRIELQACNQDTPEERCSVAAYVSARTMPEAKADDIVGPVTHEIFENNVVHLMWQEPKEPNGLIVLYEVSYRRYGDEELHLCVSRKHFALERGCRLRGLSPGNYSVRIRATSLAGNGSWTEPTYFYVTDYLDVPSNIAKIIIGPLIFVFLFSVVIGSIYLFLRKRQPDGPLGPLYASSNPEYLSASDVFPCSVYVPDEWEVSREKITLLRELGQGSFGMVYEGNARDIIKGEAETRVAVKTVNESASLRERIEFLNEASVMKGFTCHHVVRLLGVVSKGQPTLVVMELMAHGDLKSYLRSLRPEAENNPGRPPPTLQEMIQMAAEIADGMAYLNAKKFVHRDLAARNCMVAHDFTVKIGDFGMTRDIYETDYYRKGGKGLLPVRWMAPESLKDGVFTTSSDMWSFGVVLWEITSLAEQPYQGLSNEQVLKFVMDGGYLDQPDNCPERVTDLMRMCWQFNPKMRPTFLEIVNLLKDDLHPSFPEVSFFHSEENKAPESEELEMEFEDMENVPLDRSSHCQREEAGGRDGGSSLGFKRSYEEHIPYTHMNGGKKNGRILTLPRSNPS

| Kd [1] [µM] | IC50 [2] [µM] | Binder |
| --- | --- | --- |
| 1.4 |  | RWPNFYGYFESLLTHFS [S257] |
|  | 0.77 | FHENFYDWFVRQVSKK [H2C] |
